In patent publication EP1601683B1 one finds % inhibition of the reaction data, which are given here for 1 molecule.

The experiment concerns the target monoclonal anti-H2a antibody of hybridoma clone B9 (ECACC provisional accession number 04030801). Kind of experiment: competitive ELISA, B9 ascitic fluid preincubated overnight with free specific peptide, then added to the peptide-coated plate. (ELISA stands for enzyme-linked immunosorbent assay.)

B1: H2 carboxyterminal peptide (SEQ ID NO. 1, …) (peptide)
peptide: CEKRRNATGEVA
The molecule B1 had a % inhibition of the reaction of 81%.
